According to patent US20240092926A1 (ONCORESPONSE, published 2024):

B1: Variant 4 (V4) (antibody, V domains shown)
VH: EVQLVESGGGVVQPGRSLRLSCAASGFTFSSYVMHWVRQAPGKGLEWVAVISEDGSNKYNADSVKGRFTISRDNSKNTLYLQMNSLRAEDTAVYYCARENVRPYYDFWSGYSSEYYYYGLDVWGQGTTVTVSS
VL: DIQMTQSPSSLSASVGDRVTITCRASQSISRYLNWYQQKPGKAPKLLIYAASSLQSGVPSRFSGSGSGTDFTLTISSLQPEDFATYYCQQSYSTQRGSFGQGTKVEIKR
notes: also called clone 4
B2: Variant 2 (V2) (antibody, V domains shown)
VH: EVQLVESGGGVVQPGRSLRLSCAASGFTFSSETMHWVRQAPGKGLEWVAVISEDGSNKYHADSVKGRFTISRDNSKNTLYLQMNSLRAEDTAVYYCARENVRPYYDFWSGYNSEYYYYGMDVWGQGTTVTVSS
VL: DIQMTQSPSSLSASVGDRVTITCRASQSISRYLNWYQQKPGKAPKLLIYAASSLQNGVPSRFSGSGSGTDFTLTISSLQPEDFATYYCQQSYSTTRGSFGQGTKVEIKR
B3: Variant 3 (V3) (antibody, human IgG1, V domains shown)
VH: EVQLVESGGGVVQPGRSLRLSCAASGFTFSSYVMHWVRQAPGKGLEWVAVISEDGSNKYEADSVKGRFTISRDNSKNTLYLQMNSLRAEDTAVYYCARENVRPYYDFWRGYNSEYYYYGLDVWGQGTTVTVSS
VL: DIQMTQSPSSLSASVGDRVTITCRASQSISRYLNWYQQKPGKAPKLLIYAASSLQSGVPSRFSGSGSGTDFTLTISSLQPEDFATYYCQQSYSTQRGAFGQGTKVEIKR
B4: Variant 5 (V5) (antibody, V domains shown)
VH: EVQLVESGGGVVQPGRSLRLSCAASGFTFSSYDMHWVRQAPGKGLEWVAVISEDGSNKYNADSVKGRFTISRDNSKNTLYLQMNSLRAEDTAVYYCARENVRPYYDFWRGYNSEYYYYGLDVWGQGTTVTVSS
VL: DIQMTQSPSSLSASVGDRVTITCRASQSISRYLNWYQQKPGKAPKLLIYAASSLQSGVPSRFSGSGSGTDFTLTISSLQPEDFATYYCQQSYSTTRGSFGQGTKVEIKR
B5: Variant 6 (V6) (antibody, V domains shown)
VH: EVQLVESGGGVVQPGRSLRLSCAASGFTFSSETMHWVRQAPGKGLEWVAVISEDGSNKYNADSVKGRFTISRDNSKNTLYLQMNSLRAEDTAVYYCARENVRPYYDFWSGYSSEYYYYGLDVWGQGTTVTVSS
VL: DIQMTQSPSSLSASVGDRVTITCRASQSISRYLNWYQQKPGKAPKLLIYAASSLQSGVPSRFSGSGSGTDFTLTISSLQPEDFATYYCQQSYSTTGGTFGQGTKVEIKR
B6: Variant 1 (V1) (antibody, V domains shown)
VH: EVQLVESGGGVVQPGRSLRLSCAASGFTFSSYDMHWVRQAPGKGLEWVAVISEDGSNKYNADSVKGRFTISRDNSKNTLYLQMNSLRAEDTAVYYCARENVRPYYDFWSGYSSEYYYYGLDVWGQGTTVTVS
VL: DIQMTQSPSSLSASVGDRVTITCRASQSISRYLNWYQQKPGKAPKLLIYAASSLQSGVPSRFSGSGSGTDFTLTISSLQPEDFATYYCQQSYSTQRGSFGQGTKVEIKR
notes: The printed VH ends in TVS, one S shorter than the other variants

Tests used:
[1] = biological target: T1, His-tagged recombinant human CD163 (R&D Systems, No. 1607-CD-050) (human, UniProt Q86VB7 46-1050, limits assumed); assay: ELISA, plate coated with His-tagged recombinant human CD163 at 5 µg/mL, detection with anti-human IgG F(ab')2-HRP, A450; log axis in nM
T1 construct: Bought protein; also called recombinant CD163 protein; huCD163; not shown: His tag
Procedure: (§1) CD163 variant antibody binding to His-tagged recombinant human CD163 (R&D Systems, No. 1607-CD-050) protein was determined using ELISA. Recombinant protein was diluted in PBS to 5 μg/mL and added to 384-well high-binding ELISA plates (Greiner Bio-One, No. 781061) at 25 μL per well and incubated at 4° C. overnight. The plates were washed three times with PBS, using a BioTek ELx405 Select microplate washer (wash program ELISA_384_PBS_3×_wash) and then blocked with 90 μL/well of blocking buffer (2% nonfat, dry milk/PBS+0.05% Tween 20) for 1 hour at RT.
(§2) After blocking, 25 μL per well of primary antibodies were added to the plates and incubated for 1 hour at RT. […] After primary antibody binding, plates were washed three times with PBS using the EL405× (wash program ELISA_384_PBS 3×_wash). The secondary antibody was a goat anti-human IgG F(ab′)₂ HRP (Jackson Immunoresearch, No. 109-035-097). Secondary antibody was diluted to 1:2500 in 2% nonfat, dry milk/PBS, and 25 μL per well was added to the wells and incubated at RT for 1 hour. The plates were washed four times with PBS, using the EL405× (wash program ELISA_384_PBS_4× wash). After removal of the final wash, 25 μL/well of neat I-Step™ Ultra TMB-ELISA Substrate Solution (ThermoFisher, No. 34028) was added and the plates were incubated for 10-15 minutes at RT protected from light. After development, the reaction was stopped by adding 25 μL per well of 0.3 M HCl and plates were read using a SpectraMax M5e instrument at 450 nm.

[2] = biological target: T2, Biotin-labeled human CD163 (human, UniProt Q86VB7 42-1050, limits assumed, biotin-labeled (sites not given)); assay: BLI (Octet RED96), b-huCD163 on SA biosensor, Ab at 6.25/12.5/25/50 nM
T2 construct: Biotinylated form of the human CD163 antigen, immobilised on SA biosensors for BLI; also called b-huCD163; Human CD163 Protein (biotinylated)
Procedure: The SA sensors were placed in the PBS buffer for 15 minutes. Different solutions were added to a 96-well plate according to the following orders, with 200 μL per well.

[3] = biological target: T2, Biotin-labeled human CD163; assay: BLI (Octet RED96), b-huCD163 on SA biosensor, ratio of KD against AB101 parental Ab
[4] = biological target: T1, His-tagged recombinant human CD163 (R&D …); assay: ELISA, His-tagged recombinant human CD163 coated; ratio of EC50 against AB101
Procedure: as §1
as §2, with “After removal of the final wash, 25 μL/well of neat I-Step™ Ultra TMB-ELISA Substrate Solution (ThermoFisher, No. 34028) was added and the plates were incubated for 10-15 minutes at RT protected from light.” left out

[5] = biological target: T1, His-tagged recombinant human CD163 (R&D …); assay: ELISA, His-tagged recombinant human CD163 coated at 5 µg/mL
Procedure: as §1, §2

[6] = biological target: T2, Biotin-labeled human CD163; assay: BLI (Octet RED96), b-huCD163 on SA biosensor, one Ab concentration 50.0 nM
[7] = biological target: T1, His-tagged recombinant human CD163 (R&D …); assay: ratio of the KD values of Table 6 (AB101 parental Ab KD over clone 4 KD); the method is not shown in the excerpt
[8] = biological target: T3, human CD163 expressed on cells (SU-DHL-1 lymphoma cells, M2c macrophages, monocytes and dendritic cells of … (human, UniProt Q86VB7 42-1114)); assay: flow cytometry on whole blood, nonclassical monocytes, APC-labeled antibody
T3 construct: Endogenous CD163 on human cells
Procedure: (§3) Antibody binding to human immune cell lineage subsets was assessed by flow cytometry. Briefly, whole blood with heparin as an anticoagulant was obtained (Bloodworks Northwest). Fc-receptor blocking reagent was directly added to whole blood to a final concentration of 10% FBS, 0.5 mg/mL human IgG1 and 0.05% NaN₃ in a final sample volume of 400 μL. […] After 30 minutes, red blood cells (RBC) were lysed with RBC lysis buffer, followed by Zombie UV viability staining. Then, cells were washed with FACS buffer (PBS containing 1% FBS, 2 mM EDTA, and 0.05% NaN₃) and resuspended in FACS buffer containing 10% FBS and 10% FcX block. Then, the antibody phenotyping cocktail (Table 8a) was added and incubated at room temperature for 30 minutes in the dark. Cells were washed with FACS buffer and resuspended in FACS buffer data acquisition using a FACSymphony™ Cytometer (BD BioSciences). Analysis was performed using FlowJo software. Populations were identified according to gating parameters as described in Table 8b.

[9] = biological target: T3, human CD163 expressed on cells …; assay: flow cytometry on whole blood, intermediate monocytes, APC-labeled antibody
Procedure: as §3

[10] = biological target: T3, human CD163 expressed on cells …; assay: flow cytometry on whole blood, DCs, APC-labeled antibody
Procedure: as §3

[11] = biological target: T3, human CD163 expressed on cells …; assay: flow cytometry on whole blood, classical monocytes, APC-labeled antibody
Procedure: as §3

[12] = biological target: T3, human CD163 expressed on cells …; assay: cell-based or functional assay
[13] = biological target: T3, human CD163 expressed on cells …; assay: cell-based or functional assay; remark: listed apart in the source
[14] = biological target: T3, human CD163 expressed on cells …; assay: cell-based or functional assay; remark: listed apart in the source
[15] = biological target: T3, human CD163 expressed on cells …; assay: cell-based or functional assay; remark: listed apart in the source

T1 sequence (Q86VB7 46-1050 limits assumed): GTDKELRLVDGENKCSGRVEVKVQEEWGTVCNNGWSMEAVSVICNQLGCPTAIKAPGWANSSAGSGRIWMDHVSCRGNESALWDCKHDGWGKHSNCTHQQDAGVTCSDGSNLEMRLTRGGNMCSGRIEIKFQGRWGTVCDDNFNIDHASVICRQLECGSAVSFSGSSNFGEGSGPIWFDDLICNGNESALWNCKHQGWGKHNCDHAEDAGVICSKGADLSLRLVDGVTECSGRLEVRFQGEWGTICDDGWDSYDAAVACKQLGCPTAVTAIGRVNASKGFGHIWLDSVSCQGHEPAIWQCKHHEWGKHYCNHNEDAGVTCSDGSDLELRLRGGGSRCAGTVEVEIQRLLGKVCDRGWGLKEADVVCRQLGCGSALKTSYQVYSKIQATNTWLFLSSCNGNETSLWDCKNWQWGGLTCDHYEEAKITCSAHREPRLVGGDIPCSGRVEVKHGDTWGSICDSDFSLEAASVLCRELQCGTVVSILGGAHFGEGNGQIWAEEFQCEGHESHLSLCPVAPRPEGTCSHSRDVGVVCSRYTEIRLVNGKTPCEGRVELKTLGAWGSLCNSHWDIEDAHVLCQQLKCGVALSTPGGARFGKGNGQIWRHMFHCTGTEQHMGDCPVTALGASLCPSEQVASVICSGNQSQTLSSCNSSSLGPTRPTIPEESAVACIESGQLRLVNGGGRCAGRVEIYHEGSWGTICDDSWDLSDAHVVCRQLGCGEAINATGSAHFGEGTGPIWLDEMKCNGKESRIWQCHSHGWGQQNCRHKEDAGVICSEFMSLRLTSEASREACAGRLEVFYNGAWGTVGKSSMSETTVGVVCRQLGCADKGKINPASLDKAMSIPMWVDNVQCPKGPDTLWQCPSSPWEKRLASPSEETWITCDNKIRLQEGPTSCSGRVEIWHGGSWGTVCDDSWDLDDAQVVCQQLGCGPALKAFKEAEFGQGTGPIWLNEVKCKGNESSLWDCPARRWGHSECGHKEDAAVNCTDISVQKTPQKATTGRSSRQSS
T2 sequence (Q86VB7 42-1050 limits assumed): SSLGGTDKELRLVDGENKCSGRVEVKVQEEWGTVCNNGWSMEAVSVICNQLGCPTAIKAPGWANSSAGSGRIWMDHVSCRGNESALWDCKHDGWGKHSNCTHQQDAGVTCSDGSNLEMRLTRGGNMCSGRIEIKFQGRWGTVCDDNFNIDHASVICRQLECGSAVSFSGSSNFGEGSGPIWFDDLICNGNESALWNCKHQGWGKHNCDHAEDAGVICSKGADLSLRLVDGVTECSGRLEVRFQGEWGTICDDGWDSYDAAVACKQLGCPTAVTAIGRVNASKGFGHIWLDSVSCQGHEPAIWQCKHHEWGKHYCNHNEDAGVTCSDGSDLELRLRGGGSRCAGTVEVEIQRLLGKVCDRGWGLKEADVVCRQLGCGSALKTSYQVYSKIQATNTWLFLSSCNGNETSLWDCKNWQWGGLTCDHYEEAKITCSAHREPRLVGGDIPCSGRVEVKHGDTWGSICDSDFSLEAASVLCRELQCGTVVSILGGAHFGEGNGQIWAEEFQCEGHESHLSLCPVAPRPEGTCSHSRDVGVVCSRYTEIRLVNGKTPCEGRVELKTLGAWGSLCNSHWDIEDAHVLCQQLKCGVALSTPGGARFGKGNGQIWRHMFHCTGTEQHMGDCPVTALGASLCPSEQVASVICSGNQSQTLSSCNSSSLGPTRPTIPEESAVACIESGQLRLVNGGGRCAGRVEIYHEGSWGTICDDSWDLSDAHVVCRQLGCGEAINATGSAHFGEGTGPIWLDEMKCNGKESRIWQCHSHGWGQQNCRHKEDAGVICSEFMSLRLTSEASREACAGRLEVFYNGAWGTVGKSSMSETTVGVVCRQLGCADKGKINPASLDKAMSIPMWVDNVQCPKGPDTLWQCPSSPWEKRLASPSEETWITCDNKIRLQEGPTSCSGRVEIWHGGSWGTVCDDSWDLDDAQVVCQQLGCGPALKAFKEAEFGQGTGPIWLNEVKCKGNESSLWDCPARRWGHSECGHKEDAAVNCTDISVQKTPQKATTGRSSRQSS
T3 sequence (Q86VB7 other isoform, or with tags, fused parts or gaps limits assumed): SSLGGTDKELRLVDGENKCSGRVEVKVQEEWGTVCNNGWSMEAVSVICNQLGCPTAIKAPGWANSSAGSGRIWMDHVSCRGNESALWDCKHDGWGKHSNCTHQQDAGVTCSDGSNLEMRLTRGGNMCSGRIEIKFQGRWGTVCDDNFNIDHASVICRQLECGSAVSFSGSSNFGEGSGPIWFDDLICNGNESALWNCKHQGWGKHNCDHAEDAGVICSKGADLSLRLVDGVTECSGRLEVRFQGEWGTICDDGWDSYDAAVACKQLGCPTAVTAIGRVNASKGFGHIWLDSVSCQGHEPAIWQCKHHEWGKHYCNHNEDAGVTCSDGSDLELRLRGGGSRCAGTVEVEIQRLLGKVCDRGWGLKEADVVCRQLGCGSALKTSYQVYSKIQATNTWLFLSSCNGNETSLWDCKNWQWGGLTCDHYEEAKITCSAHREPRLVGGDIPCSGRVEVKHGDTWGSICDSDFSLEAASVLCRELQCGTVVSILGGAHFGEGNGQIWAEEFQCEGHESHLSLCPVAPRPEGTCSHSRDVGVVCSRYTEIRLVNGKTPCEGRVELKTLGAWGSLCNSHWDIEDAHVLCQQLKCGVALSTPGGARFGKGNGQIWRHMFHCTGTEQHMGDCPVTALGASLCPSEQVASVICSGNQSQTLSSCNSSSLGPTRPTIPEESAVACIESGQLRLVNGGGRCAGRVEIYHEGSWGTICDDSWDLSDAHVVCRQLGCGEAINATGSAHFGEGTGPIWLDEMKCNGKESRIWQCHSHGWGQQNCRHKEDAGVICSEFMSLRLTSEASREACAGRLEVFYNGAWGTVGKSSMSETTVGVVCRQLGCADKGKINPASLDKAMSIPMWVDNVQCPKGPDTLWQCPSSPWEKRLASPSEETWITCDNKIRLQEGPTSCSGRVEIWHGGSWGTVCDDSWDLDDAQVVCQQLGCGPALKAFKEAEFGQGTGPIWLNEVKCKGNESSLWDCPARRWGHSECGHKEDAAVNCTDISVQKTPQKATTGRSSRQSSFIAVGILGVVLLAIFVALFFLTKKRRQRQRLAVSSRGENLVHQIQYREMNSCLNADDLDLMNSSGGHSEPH

| Binder | EC50 (read off the curve) [1] [nM] | fold stronger binding than AB101 parental antibody (EC50) [4] [fold] | EC50 [5] [nM] | Kd [6] [nM] | koff [6] [s⁻¹] | kon [6] [M⁻¹ s⁻¹] | also measured |
| --- | --- | --- | --- | --- | --- | --- | --- |
| B1 | ~0.003 | 27 to 45 | 3.05 | 0.824 | 0.000874 | 1.06e+06 | Kd [2]: 0.176 nM; koff [2]: 0.000393 s⁻¹; kon [2]: 2.23e+06 M⁻¹ s⁻¹; Affinity enhancement compared to parental Ab [3]: 3760 fold; fold affinity enhancement compared to AB101 parental Ab [7]: ~3760 fold |
| B2 | ~0.002 |  | 2.23 | 0.991 | 0.00087 | 878000 |  |
| B3 | ~0.003 |  | 2.79 | 0.937 | 0.000925 | 987000 | fold increase of geometric MFI compared to AB101 [8]: 3 fold; fold increase of geometric MFI compared to AB101 [9]: 9.2 fold; fold increase of geometric MFI compared to AB101 [10]: 4.3 fold; fold increase of geometric MFI compared to AB101 [11]: 9.8 fold; potency against AB101 in relieving M2c-mediated suppression of IFNγ release [12]: > 10 fold; potency against parental AB101 in relieving M2c-mediated suppression of CD8+ T cell proliferation [12]: ~40 fold; potency against parental AB101 in relieving M2c-mediated suppression of perforin secretion [12]: ~100 fold; EC50 of antibody-elicited perforin secretion (M2c/CD8+ T cell coculture) [13]: 0.33 nM; EC50 of antibody-elicited IFNγ secretion (M2c/T cell blast coculture) [14]: 0.47 nM; EC50 of antibody-elicited T cell proliferation (M2c/CD8+ T cell coculture) [15]: 0.27 nM |
| B4 | ~0.003 |  | 2.83 | 1.03 | 0.000978 | 951000 |  |
| B5 | ~0.003 |  | 2.68 | 0.964 | 0.000887 | 921000 |  |
| B6 | ~0.002 | 27 to 45 | 1.87 | 1.25 | 0.00112 | 895000 |  |
